This is an account of results in the PETadex activity labels.

B1: unnamed (protein)
chain: MKFRLAKLAVLSCALASASAFAQYQKGPDPTTSSLERAGSFATRTISVSSLAASGFGGGRIYYPTASGSYGVIAVSPGYTGTASTMYFWGERLSSHGFVVIVIETNTLLDQPGSRANQLMAALNYTVSQGNSRTSALYGKVDGNRRGVAGHSMGGGGTLIAAADNASLKAAVPMAPWNLSSLSFRGIRVPTMIFGCQSDAIAPVNTHAVPFYNAIPSSTKKGYVEMRLDDHFCVMNGGGHYETLGKLGISWFKRFIDEDTRYSKFLCGTEYNATVRSTEVSDSKNNCPY
B2: unnamed (protein)
chain: MGSDDAWIRGEDPTEASIVAMGPYAVGEITEADGLRDGPLYGDASVGDGGATVYYPTDADPPFGGIAVYPGWLYNRDAIAGWGPFLASHGIVMMAVDPQSTGEQPEDRQLGQADALISLKGENTRAGSPLEGKLDTTRLGVMGWSMGGGATWLNADDTASEVYADLVVAISLCGWRPVAVGGNTKAASLQFASVADVLAGGMSQPVYDLIPASTPKMLIEFEGDDHFIANDPSGASWQVGRYGLSWIKVFLERDERYRPFLMTMPMNTTEVRPLM
B3: unnamed (protein)
chain: MKVNKAHSIAVGLLSLVAVAHTHAQTNPYAKGPDPTSAALEADGPFVVSTQNISGAGFGGATVYSPDTAGTYAVVAFCPGFTATRSSVASFGRRLATHGFVVATIDTNSTLDLPPSRGTQLLAALKTVSALSTGPAAGKIDASRKVVSGWSMGGGGTLYASASDETLKTAVGLAPYSAQKKKFSTSVPQLILGGEDDIVAPVSSHSLSFFNQLPNATPKLYAEIADADHYFPTDAESSQPASKLQIAWVKRFADNDTRYEQFLSTAGIQVDLTNGRLSDSRRESTTF
B4: unnamed (protein)
chain: MASQTNPYARGPNPTAASLEASAGPFTVRSFTVSRPSGYGAGTVYYPTNAGGTVGAIAIVPAYAARQSSIKWWGPRLASHGFVVITIDTNSTLDQPSSRSSQQMAALRQVASLNGTSSSPIYGKVDTARMGVMGWSMGGGGSLISAANNPSLKAAAPQAPWDSSTNFSSVTVPTLIFACENDSIAPVNSSALPIYDSMSRNAKQFLEINGGSHSCANSGNSNQALIGKKGVAWMKRFMDNDTRYSTFACENPNSTRVSDFRTANCSLEHHHHHH
B5: unnamed (protein)
chain: MKKLALKKLAACTFSLLFSLSAYSGGGDDGSNSGELPPPSTCSINCGFEIGPDPSLSFVRASQGPLPVSTSIVSSSVDGFGGGTIYYPSTITDEMATIAISPGFTASQSAIAWWGPLLASHGFVVITIDTNGTFDQPTSRGRQLDSALNYLISEGNRANSPVAGLIDENRLATMGHSMGGGGALQSAARNRLSASVPLAPFNTGSNDFNQINVPTMIMGCEDDGVAPVNSHAIPFYQDIPGTTDKALLEIANGPHNCANGGSSNNPTLSTYGVSWMKRFLDKDRRYDQFLCGPDHIADSRISDFRDTCTF
B6: unnamed (protein)
chain: MRPSSSSLHTAVPLRPCSRAMTALIALATTIGLALALLTAAAPPAAAADLLSQGRLATASSTENTSTPASAAVDGNTGTRWASTFSDPQWLSVDLGATATISQVVLRWEAAYARAFQIQTSTNGTVWTTVHSTTTGTGGVQTLDVIGNGRYVRMLGTQRGTTYGYSLFEFQVYGSGGGTPPGNGIPDPTATSLETANGPLTTATYAVPSPSGYGSGTVTYPTDSGSYPGVVLMPGYQGTQQNLQWLAPRLASWGFVVINVGTNTLTDDPASRGRQITAAGSQLIALGNAAGNPLSGRVSGALGAVGHSMGGGGVMAALRDDARFRAGVPTAPYYPDTNFSAVTEPTFFLTCQSDPVAHGNDYAVPWYNSMSQAEKLYIEVPGDHLCPMTGSGNKAKQGKWIVSFLSLWLRADTRFSPFLCGPVRDPDKNNPSLVTRWMDTCSF
B7: unnamed (protein)
chain: MLRFRVAASLPAEYLAVDNVVLEGTAQPPAPGGSGYQKGPEPTAALLEAGTGPFATASVTLSRSAASGFGGGTIHYPQGVAGPFAAVAVVPGYLAAESTIAWWGPRLASHGFVVITMATNNTLDLPASRSAQLTAALNQLKTLSATPGHAVFGLVDPNRLGVVGWSYGGGGTLLNAQANPQLKAAMALAPKTLLQGDFTGTTVPTLVVGCQADTTAAPAFWAIPFYNKVSASTGKAYLEVRGGSHFCVTSSTSDADKKALGKYGVAWLKRFMDEDTRYAPFLCGAPRQADVAGNAAISDYRDNCPY
B8: unnamed (protein)
chain: MKTSNTRTARTIPGDTMSLGLTRLAKAAVLAAALLMSAAAQAQSNPYQKGPDPTAASLEATAGSFAVSTTSVSSLSASGFGGGTIYYPTAAGSYGAIAVSPGFTATQSSIAWLGPRLASHGFVVITIDTNSTLDQPDSRATQLMAALNYVVSLSQTSSSPIYGKVDANRLGVAGHSMGGGGTLIAARDNPTLKAAVPLAPWNTTKNFSSVTVPTLIIGCENDTVAPVSSHAIPFYNSIPSSTDKAYMELNGADHFCPQSSSNNPIIGKYMVAWMKRFVDNDTRYSPFLCGAPHQADLSSSAVSDYRSNCPY
B9: unnamed (protein)
chain: MRAGFMGVGAAALVALAGCSSTPSNEGTSKPSVTAPTGGSTVIGAAGVGATAGRPASAGTGASPAVTPPSTTVPSGTTKPPAAAGSSAMGAAGAAVSGMAGSSASAGTGAIAGSSAAAGSSAAAGSGAAAGSGAAPGGGFIREAAPTEDSLKKNGEYSVKSYTEKDGLVGGMEYGDAALGGDGSELYYPEGATAPFAAMAIVPGFTAQRSDVAPWGPFLASHGIVALVIDTNSTGDQPDVRSRALLDALESIKKENMRDGSPVKGKIDTSRLGVMGWSMGGGGTWITADGHPELKVAVSLCGWIIQSIGSKTTVPSLQLAVQDDQLAAGMSQPVYMAIPDKTPKMLVEWSSGGHWINNSPENVDHQVGRYGLPWIKVYLENDERYRQFFKTKPTGASDFQTNQ
B10: unnamed (protein)
chain: MSCRQEPLGDKMRFFSQKCLATVAAVVATLASGAALAQTSNPYQRGPNPTTSSLEASRGSFAISQFRVSRPSGFGGGTVYYPTNAGGTVGAIAVVPGFLARQSTINWWGPRLASHGFVVITIDTNSTSDQPASRATQLMAALRQVVTLNGTRSSPIYNKVDTSRLAVMGWSMGGGGTLIAARDNPTLKAAVPFAPYNTGTNFSASAVPTLIIGCESDTVAPVGQHAEAFYTSMTRPEKAYLEINGGSHTCATSGNRNQAMIGKYGVSWMKRFVDNDTRFSDFLCGAPHAADLRNTSVISEYRETCPY
B11: unnamed (protein)
chain: MKFNLVAQAALFAATLAAGSAAWAVQIGPAPTKSALEASRGPFSTKSFTVSRPNGYGAGTVYYPTNAGAKVGVISIVPGYLSYQNSINWWGPRLASHGFVVVTIDTNSTTDQPASRSTQQLKALDQVVALGNTSSSPLYNKVDGSRTGVMGWSMGGGGSLISGQNRPSIKAAAPQAPWNSSTNFSSLTVPTLIFGCQSDATAAPASHAIPFYNSMSRNPKQYLEKSLGNHFCFNSANATVGLKGVAWMKRFVDGDTRYTSFACNNPNASGFSSFRTERCS
B12: unnamed (protein)
chain: MLALRTSFPRVLTRLLAASLATGLVAQAQAAGHERGPAPTAASLEAEAGPFQVASTVLGAPVGYKGGTVFYPKGPGPFALVAFAPGFIETQSWNAWWAKYLASHGFVVVNIDTKSTLAFPPARQREQLAALKDVIQRSHTRGTPFYGLVDATRLGAMGHSMGGGATLELARDTPHIKAIVPMAPFQTTGTDYSRLTVPTLILTCKGDIVASAKSHAAPIYDSLPSSLDKAHVELAGGGGHPCTTSLGTSAEVKKVAAKYGVSWLKRFLDEDTRYSPFLCGAEHEASLKTSVVSAYQGNCPH
B13: unnamed (protein)
chain: MNTSILEKMAVGASALLFSFSAFSFTPDPTPDPDPDPGPGPCQSDCDFTRGPNPTSSYLEANSGPYSVSTISVSRSVSGFGGGTIHYPTNTTGTMGAVAIVPGFLAGESSISWWGPRLASHGFVVITIATNSGFDQPDSRETQLGRALDYVISQSNSGSSPISGMVDSTRVGAMGWSMGGGGTLRLASGTRLSAAIPLAPWHSGSNNFNQIDTPTLIIACENDSTAPVGSHASPFYNRIPTSTDKAYLEINNGSHSCANGGGSNGGLLGKYGVSWMKRFIDQDTRYSQFLCGPNHAANSAISEYRETCNY
B14: unnamed (protein)
chain: MKTSNSRQRRWAVGLGLLLLAAAAHAQTNPYQKGPDPTSASLNATAGPFAVATTSVSSSASGFGGGTIYYPTTAGSYAAIAISPGFTATQSSIAWLGRRLASHGFVVITINTNSTLDQPPSRATQLMAALRYLTNSSSSTVRSRVDANRLGVAGHSMGGGGTLIAARDNPTLKAAVPLTPWSTTKSFSTVRVPTLIVGAENDTVAPVSSHSIPFYNSLPSSLDKAYAELNGASHFAPNSTNTPIGRYSVAWVKRFMDNDTRYSPFLCGAPHTAYATSTVFSDYRSTCPY
B15: unnamed (protein)
chain: MRLIRRWPMRRLAIGFVLALVLSACDWRGPAPTQQSVVAARGPFAVGTIAVPSSAGFGGGTIYYPSDNAGPFAVISISPGFLGDQSSIAVWGPRLASNGFVAITINTTNGFILPDQRSQEQRQALTYVVNQGNNPSSPISGKVDPDRKGVAGHSMGGGATLISANADPTIRAAMPLAPWNGSASFPNVRVPTLIWACEADNIAPVASHASPMYNSIPSTTRKMYLSVDNGNHFCANSPDNSSQTVGKFGVSFFKKFLDTDTRYDPWVCGASRATAGTVLNEVRSTCPF

Substrate in this data set: BHET
The following applies: 120 h.
B1: the plate clearing result is reported as “not clears the plate”.
For B2 the value was “clears the plate (z > 3 vs empty vector)”.
For B3 the value was “not clears the plate”; for B4, “not clears the plate”.
Turning to B5, the plate clearing result is on record as “not clears the plate”.
For B6, the plate clearing result is “not clears the plate”.
For B7 the value was “not clears the plate”; for B8, “not clears the plate”; for B9, “clears the plate (z > 3 vs empty vector)”.
In the case of B10, the plate clearing result is “not clears the plate”.
Consider B11, for which the plate clearing entry is “not clears the plate”.
B12: the plate clearing entry is “not clears the plate”.
For B13 the value was “not clears the plate”; for B14, “not clears the plate”; for B15, “not clears the plate”.
